# Data: patent US20090202547A1 (FIBRON, published 2009)
# T1: FR1exFc (UniProt P11362 22-376, limits assumed)
# T1 construct: extracellular domain; also called FGFR1/Fc; FR1/Fc; not shown: Fc part; the construct of FR1exFc is not described
# T1 sequence (looked up): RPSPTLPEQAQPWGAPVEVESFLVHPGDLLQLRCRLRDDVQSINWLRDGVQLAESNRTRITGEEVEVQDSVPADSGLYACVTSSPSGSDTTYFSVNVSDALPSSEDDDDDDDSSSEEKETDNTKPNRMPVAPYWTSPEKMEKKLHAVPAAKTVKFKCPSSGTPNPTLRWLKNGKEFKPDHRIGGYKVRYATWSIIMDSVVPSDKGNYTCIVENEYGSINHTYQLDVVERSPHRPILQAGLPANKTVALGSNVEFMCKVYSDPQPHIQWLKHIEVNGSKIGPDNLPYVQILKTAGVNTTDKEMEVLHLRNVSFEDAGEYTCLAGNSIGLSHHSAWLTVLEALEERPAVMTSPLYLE
# T2: hFR3^D2Fc (human, UniProt P22607 143-250)
# T2 construct: Only domain 2 of the entry stood in the assay; also called product of pChFR3^D2Fc; not shown: human Fc
# T2 sequence: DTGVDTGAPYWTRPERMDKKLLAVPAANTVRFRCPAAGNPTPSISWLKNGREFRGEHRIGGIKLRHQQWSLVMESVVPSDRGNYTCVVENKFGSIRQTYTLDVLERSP
# What was measured:
# [1] = target: T3, FGFR3 (wild type) on cells (human, UniProt P22607 23-806); assay: cell-based or functional assay
# FR3exFc [2] = target: T4, FR3exFc (human); assay: BIAcore, Fab-dHLX-MH miniantibody
# T4 construct: also called FGFR3/Fc; FR3/Fc
# FR1exFc [3] = target: T1, FR1exFc; assay: ELISA, FGFR/Fc captured on anti-human Fc coated plate, detection with anti-human Fab-HRP
# [4] = target: T3, FGFR3 (wild type) on cells; assay: FACS
# [5] = target: T3, FGFR3 (wild type) on cells; assay: indirect FACS-Scatchard
# FR1exFc [6] = target: T1, FR1exFc; assay: Affinity to FGFR1 (BIACORE and/or FACS)
# FR3exFc [7] = target: T4, FR3exFc; assay: BIACORE, FGFR3 captured on an anti-Fc chip
# Experimental: (§1) The affinity measurements were performed by BIACORE® analysis according to the standard procedure recommended by the supplier (Pharmacia). The anti-Fc antibody was coupled via the EDC/NHS chemistry to the chip and subsequently FGFR3 was captured. The Fabs of the invention were then bound to this surface.
# [8] = target: T3, FGFR3 (wild type) on cells; assay: cell-based or functional assay; remark: listed apart in the source
# [9] = target: T3, FGFR3 (wild type) on cells; assay: cell-based or functional assay; remark: listed apart in the source
# hFR3^D2Fc = target: T2, hFR3^D2Fc; assay: ELISA, Fc fusion anchored on an anti-human Fc coated plate, bound Fab detected with HRP anti-human Fab
# Text: Constructs comprising cDNAs that code for segments of the extracellular domain of FGFR3 were generated (FIG. 10). D2 comprises Ig domain 2, D2-3 comprises Ig domains 2 and 3, and D1-3 comprises Ig domains 1, 2 and 3. These constructs include pChFR3^D2Fc that codes for Ig-like domain 2 of FGFR3 and pChFR3^{D2,3}Fc that codes for domain 2 and 3, both as human Fc fusions. The corresponding chimeric proteins, as well as the control hFR3exFc (containing domains 1, 2 and 3) were anchored to an ELISA plate coated with a human Fc antibody. A panel of 8 best Fabs, MSPRO2, 11, 12, 21, 24, 26, 28 and 29, were added, and bound Fab was determined with HRP-α human Fab (FIG. 11). […] Both bind to the Ig like domain 2 while the others require domain 3 for binding. It was then tested whether or not Fabs that belong to the second group would distinguish the FGFR3IIIc isoform from the FGFRIIIb from. FDCP-FR3IIIb or FDCP-FR3IIIc cells were incubated in the presence of 1.25 ng/ml FGF9 with increasing doses of either MSPRO12 or MSPRO29. Ly6.3 was included as control. After 2 days in culture, cell proliferation was measured with the XTT reagent. Clearly, MSPRO29 (open triangle) was completely ineffective against the IIIb isoform (FIG. 12).
# FR3exFc [10] = target: T4, FR3exFc; assay: BIACORE
# Experimental: as §1
# FR3exFc [11] = target: T4, FR3exFc; assay: BIACORE, FGFR3 captured on an anti-Fc chip; remark: listed apart in the source
# Experimental: as §1
# FR3exFc [12] = target: T4, FR3exFc; assay: ELISA, FGFR3/Fc anchored on anti-human Fc coated wells, about 5 µg Fab per well (labelled with cold iodine at 0.04 mM NaI), detection with anti-human Fab; parallel wells without FR3/Fc
# Experimental: To determine the effect of iodination on Fab activity, 50 μg of MSPRO29 was first labeled with cold iodine using Pierce IodoGen coated tubes. The process was carried out either without iodine, with 0.04 mM NaI (low I) or with 1 mM NaI (high I). MSPRO29 was then purified through a SEPHADEX® G-50 column. The ability of the modified Fab to bind FGFR3 was determined by ELISA. MAXISORP® wells were coated with anti-human Fc. FGFR3/Fc was then anchored to the wells. In parallel, a similar set of wells was left in blocking buffer only (no FR3/Fc, hatched bars). The unmodified (no I) or the modified MSPRO29 (low or high, 2 G-50 fractions each, 1 and 2) were added at approximately 5 μg/well and binding was measured with anti-human Fab. Fresh MSPRO29 and buffer alone were included as controls (FIG. 14: FGFR3/Fc, checkered bars; no FGFR3/Fc, hatched bars). MS-PRO29 was labeled with 1 mCi ¹²⁵I. The specific activity of the Fab was 17 μCi/μg.
# FR3exFc [13] = target: T4, FR3exFc; assay: BIAcore, Fab-dHLX-MH miniantibody; Fab-dHLX-MH miniantibody (dimer)
# FR3exFc [14] = target: T4, FR3exFc; assay: BIAcore; number in parentheses taken as the monomeric Fab; monomeric Fab, not miniantibody
# T4 sequence (chain, as listed by the source limits assumed): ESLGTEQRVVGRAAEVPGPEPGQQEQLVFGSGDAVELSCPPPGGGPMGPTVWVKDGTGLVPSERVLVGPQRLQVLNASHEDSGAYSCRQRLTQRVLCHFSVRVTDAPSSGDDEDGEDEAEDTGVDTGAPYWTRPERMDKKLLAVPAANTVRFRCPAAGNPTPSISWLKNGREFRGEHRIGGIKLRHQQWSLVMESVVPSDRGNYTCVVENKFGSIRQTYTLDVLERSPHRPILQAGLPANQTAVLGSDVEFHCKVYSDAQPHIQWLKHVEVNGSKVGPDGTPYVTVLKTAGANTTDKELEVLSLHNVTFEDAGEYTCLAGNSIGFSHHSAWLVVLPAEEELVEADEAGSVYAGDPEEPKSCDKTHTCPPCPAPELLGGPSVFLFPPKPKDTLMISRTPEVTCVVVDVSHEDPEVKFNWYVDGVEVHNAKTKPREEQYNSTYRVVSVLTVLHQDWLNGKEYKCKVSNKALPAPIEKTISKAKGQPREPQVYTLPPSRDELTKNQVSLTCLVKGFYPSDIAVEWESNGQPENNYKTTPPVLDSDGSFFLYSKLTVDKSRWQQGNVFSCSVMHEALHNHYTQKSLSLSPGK
# T3 sequence (P22607 23-806 limits assumed): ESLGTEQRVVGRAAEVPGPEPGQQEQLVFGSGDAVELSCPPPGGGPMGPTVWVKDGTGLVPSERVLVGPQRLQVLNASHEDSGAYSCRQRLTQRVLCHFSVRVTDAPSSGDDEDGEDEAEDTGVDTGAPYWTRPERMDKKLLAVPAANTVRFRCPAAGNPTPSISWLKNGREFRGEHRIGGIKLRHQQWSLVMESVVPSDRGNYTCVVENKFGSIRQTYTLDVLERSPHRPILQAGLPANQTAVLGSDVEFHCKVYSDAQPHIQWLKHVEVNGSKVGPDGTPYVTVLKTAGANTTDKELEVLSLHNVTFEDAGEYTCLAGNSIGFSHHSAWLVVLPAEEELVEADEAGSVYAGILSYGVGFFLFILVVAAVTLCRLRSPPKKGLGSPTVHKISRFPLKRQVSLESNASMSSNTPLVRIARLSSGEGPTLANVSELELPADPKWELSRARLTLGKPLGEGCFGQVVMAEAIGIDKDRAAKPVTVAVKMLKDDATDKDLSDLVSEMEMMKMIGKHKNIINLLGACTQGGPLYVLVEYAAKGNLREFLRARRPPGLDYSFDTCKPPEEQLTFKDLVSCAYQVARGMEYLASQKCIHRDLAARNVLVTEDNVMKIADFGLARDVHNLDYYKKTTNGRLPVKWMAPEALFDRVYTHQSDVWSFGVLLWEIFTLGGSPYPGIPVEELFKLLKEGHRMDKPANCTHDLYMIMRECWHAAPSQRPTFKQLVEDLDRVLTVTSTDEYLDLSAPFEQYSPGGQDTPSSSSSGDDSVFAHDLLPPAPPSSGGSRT
"IC50, FDCP-FGFR3 proliferation assay with FGF9, dimeric dHLX format [1] [µM]",binding result (FR1exFc [3]),Kd [4] [µM],Kd [5] [µM],Kd (FR3exFc [7]) [µM],"IC50 FR3 (FGF9), FDCP-FGFR3 proliferation assay [8] [µM]",koff (FR3exFc [10]) [s⁻¹],Kd (FR3exFc [11]) [µM],Kd (FR3exFc [13]) [µM],Binder,also measured
0.026,no binding,,,,,,,,"MS-Pro-12-dHLX-MH (Fab, V domains shown, Fab mini-antibody format Fab-dHLX-MH, a dimer of the Fab monomer; also called MSPRO12 dimeric dHLX format; Fab-dHLX) VH: QVQLKESGPALVKPTQTLTLTCTFSGFSLSTSGVGVGWIRQPPGKALEWLALIDWDDDKYYSTSLKTRLTISKDTSKNQVVLTMTNMDPVDTATYYCARYHSWYEMGYYGSTVGYMFDYWGQGTLVTVSS VL: DIELTQPPSVSVAPGQTARISCSGDALGDKYASWYQQKPGQAPVLVIYDDSDRPSGIPERFSGSNSGNTATLTISGTQAEDEADYYCQSYDFDFAVFGGGTKLTVLG",Kd (FR3exFc [2]): 0.0012 µM
,,< 0.001,0.0004,0.006,0.02,0.0014,0.006,,"MSPRO29 (Fab, V domains shown) VH: QVQLVQSGAEVKKPGASVKVSCKASGYTFTSYYMHWVRQAPGQGLEWMGWINPNSGGTNYAQKFQGRVTMTRDTSISTAYMELSSLRSEDTAVYYCARTWQYSYFYYLDGGYYFDIWGQGTLVTVSS VL: DIVLTQSPATLSLSPGERATLSCRASQSVSSSYLAWYQQKPGQAPRLLIYGASSRATGVPARFSGSGSGTDFTLTISSLEPEDFATYYCQQTNNAPVTFGQGTKVEIKR",Kd (FR1exFc [6]): 0.029 µM; amount of Fab that inhibits FGFR3 activation (JNK signaling) in RCJ-FR3 cells [9]: < 5 µg; binding result (hFR3^D2Fc): no binding
,,,,,,,,,"iodinated MSPRO29 (Fab, V domains shown, iodinated with IodoGen (cold NaI at 0.04 mM or 1 mM, or 125I); sites not stated, MSPRO29 Fab after iodination; which preparation (low I, high I, 125I) is told in each row; also called modified MSPRO29 (low I; high I)) VH: QVQLVQSGAEVKKPGASVKVSCKASGYTFTSYYMHWVRQAPGQGLEWMGWINPNSGGTNYAQKFQGRVTMTRDTSISTAYMELSSLRSEDTAVYYCARTWQYSYFYYLDGGYYFDIWGQGTLVTVSS VL: DIVLTQSPATLSLSPGERATLSCRASQSVSSSYLAWYQQKPGQAPRLLIYGASSRATGVPARFSGSGSGTDFTLTISSLEPEDFATYYCQQTNNAPVTFGQGTKVEIKR",binding result (FR3exFc [12]): binds
0.061,no binding,,,,,,,0.0043,"MS-Pro-2-dHLX-MH (Fab, V domains shown, Fab mini-antibody format Fab-dHLX-MH, a dimer of the Fab monomer made as a fusion protein; also called MSPRO2 dimeric dHLX format; Fab-dHLX) VH: QVQLVQSGAEVKKPGASVKVSCKASGYTFTSYYMHWVRQAPGQGLEWMGWINPNSGGTNYAQKFQGRVTMTRDTSISTAYMELSSLRSEDTAVYYCARDFLGYEFDYWGQGTLVTVSS VL: DIELTQPPSVSVAPGQTARISCSGDALGDKYASWYQQKPGQAPVLVIYDDSDRPSGIPERFSGSNSGNTATLTISGTQAEDEADYYCQSYDYSADYVFGGGTKLTVLG",
,,0.043,0.043,0.037,0.36,0.02,0.037,,"MSPRO2 (Fab, V domains shown) VH: QVQLVQSGAEVKKPGASVKVSCKASGYTFTSYYMHWVRQAPGQGLEWMGWINPNSGGTNYAQKFQGRVTMTRDTSISTAYMELSSLRSEDTAVYYCARDFLGYEFDYWGQGTLVTVSS VL: DIELTQPPSVSVAPGQTARISCSGDALGDKYASWYQQKPGQAPVLVIYDDSDRPSGIPERFSGSNSGNTATLTISGTQAEDEADYYCQSYDYSADYVFGGGTKLTVLG","IC50, FDCP-FGFR3 proliferation assay with FGF9, monomeric Fab (in parentheses) [1]: 0.36 µM; IC50 of inhibition of FDCP-FR3 proliferation with FGF9 (XTT) [9]: ~1 mg/L; Kd (FR3exFc [14]): 0.037 µM"
0.02,,,,,,,,0.0022,"MS-Pro-21-dHLX-MH (Fab, V domains shown, Fab mini-antibody format Fab-dHLX-MH, a dimer of the Fab monomer; also called MSPRO21 dimeric dHLX format; Fab-dHLX) VH: QVQLVQSGAEVKKPGSSVKVSCKASGGTFSSYAISWVRQAPGQGLEWMGGIIPIFGTANYAQKFQGRVTITADESTSTAYMELSSLRSEDTAVYYCARDNWFKPFSDVWGQGTLVTVSS VL: not shown",
